From article PMC11784017 (2024)

Target: T1, SVCV-G protein, purified, biotinylated (spring viremia of carp virus (SVCV), UniProt Q91DS0 19-509, biotin (biotinylated))
T1 chain: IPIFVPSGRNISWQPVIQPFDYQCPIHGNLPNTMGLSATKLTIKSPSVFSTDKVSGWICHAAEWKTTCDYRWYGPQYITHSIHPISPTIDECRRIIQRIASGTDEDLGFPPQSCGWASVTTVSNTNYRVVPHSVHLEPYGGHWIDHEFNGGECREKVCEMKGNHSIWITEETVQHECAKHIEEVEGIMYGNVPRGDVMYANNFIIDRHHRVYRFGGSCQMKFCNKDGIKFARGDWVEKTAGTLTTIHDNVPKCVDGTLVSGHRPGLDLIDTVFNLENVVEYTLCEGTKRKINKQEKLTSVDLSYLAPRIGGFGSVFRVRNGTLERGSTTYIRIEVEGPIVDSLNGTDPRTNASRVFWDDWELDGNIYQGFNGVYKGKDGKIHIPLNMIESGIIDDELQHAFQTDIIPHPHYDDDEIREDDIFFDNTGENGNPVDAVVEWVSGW
Experiment: BLI

B1: scFv-2 (scFv)
chain 1: QSVEESGGRLITPGTPLTLTCTASGFSLSSHYMIWVRRTPGKGLEWIGLIFISGSTNYANWAKGRFTVSRTSTTVDLKITSPTTEDTATYFCARGRGGTDYQSWLFGLWGQGTVVTVSS
chain 2: ELVMTQTPSPVSVAVGGTVTINCQSSPSVYSNYLSWYQQKPGQPPKQLIYGASSLASGVPSRFKGSGSGTQFTLTISGVECDDAATYYCVGWKGGPNGEFAFGGGDRAGDP
  Kd: 3.71 µM

B2: scFv-1 (scFv)
chain 1: QSVEESGGRLVTPGTPLTLTCTASGFSLSTYYMTWVRQAPGKGLEWIGIIDPYGTTWSASWVKGRFTISRTSTTVDLKMTSLTAADTATYFCARIDSIYTIGHCDLWGQGTLVTVSL
chain 2: ELVMTQTPASVSAAVGGTVTIKCQASQSIGTALAWYQQKPGQPPKLLIYKTSTLASGVSSRFKGSGSGTEFTLTISDLECADAVTYYCQYAYYGGNDVGGAFGGGDRAGDP
  Kd: 3.12 µM
